This series is described as follows: soluble fraction after stress (log2 fold change); higher = more stays soluble; pooled small domains, quantitative proteomics. The note with it: stress: 75 degC.
For “HMGETPEILRDWEAAQNAVNDMLSKYAPGGYMGKIIYPLLTPLKERLEAGERTPDLYNAIVEAT”, the “soluble fraction (log2)” value came to 0.119.
With “HMGETYTIPDVRGYTLEDAMELPEIKENGFTIIEGRQIVDADVPVGQIISQTPEAESIAKSNVKEITVNIS”, the “soluble fraction (log2)” value came out at 0.239.
With “HMGEVPVETKDGIKVHVHTVDKSQTAYGISRLYNITLNELYESNPEAKLELSIGQKLYFPVK” the figure was -0.199.
For “HMGEVVRAPMPGNVLKMEVAQGQEVEEGDLLLVLEAMKMENDIVAPKGGIVIQLVVDKGMVVETDDPLVVI”, the “soluble fraction (log2)” value was -0.339.
For the sequence “HMGEWNSVFSVPSSVVDKHLKTASSVYVKVLLVILRNAGNRISDQQISEQLSVPVDEVQEAIRYWNAAGIF”, the “soluble fraction (log2)” value is -2.76.
Turning to “HMGFAANLSRLMEYHNISMYRLAKEVGVHQTTVKNWLEEESEPKIAALEKIVGLLGVSYDELLG”, the “soluble fraction (log2)” value was -4.58.
With “HMGFLTGNTQGEVNRKTKNQMVNIFLPTTPNPTSGFLLFVPKKDILRLTMTVEEGIKMIISAGMLTPS” the figure was -0.527.
With “HMGFTDREREIIRNDLVATGRELFGTFGLKKTSIEDLTKAVGIAQGSFYTFFNSKEELYLEVMDREGEA” the figure was -1.14; with “HMGGALSPDFGWLAMIDPDEGRAITLYDIASGEAIAVLDTHEARVAALAWSPDGTRLASGDQNGLIVQWEI”, -0.31.
As to “HMGGEEPYGSGSLRLAAGAVVPSGYTIKGNEDSMLYHTTESPWYKQTIAEVWFNAESAAQRAGFTRWDAKD”, the “soluble fraction (log2)” value is -0.137.
Then “HMGGEIGSGKNGYVAFYKGKKVDVKADSMYGAQKTAAKYFNAKKEYDVNVVLAEVDGKQYVQS”, with 0.547.
Then “HMGGGVERLTPRQREVLGYMAEGRSNSWIAGAIGFSEKAVVQHTSKIYDALGLAVDADDHRRVLAVLRYLT”, with -1.44; and “HMGGKWKLRILWHIHHGDTRFSTLKRGIPEISEKILAQQLRELEEHQLIKRRVVTVMPPHVVYEL”, with -2.37.
With “HMGGLAEIILNAIEIEGGFLPITDKSAPELIQSRLGMSKKAFKEAVGTLYKNRDIAIEPNGLRKI” the figure was -0.452; with “HMGGLALAEREVVEWLSQRNLLPSPDVVARAAAHPDGLGWLERSLAVLEGPRLFLGLGDLVPEP”, -0.688.
For “HMGGLAVQLVHAMTDQIRSGRLKAGDKLPTEAAIMKDFGVSRTVVREAISRLQASGWVDTRHGIGTFVLHQ”, the “soluble fraction (log2)” value is -2.1.
Then “HMGGLIEPLSARELEVLELMSLGKTNQEIARDLVVASGTIKAHAASIYRKLDAANRTEAVTHARELGIL”, with 0.471.
With “HMGGPEVLELEDVKVGSPGPDEIKVTNHAIGLNYIDTYHRSGLYPLKLPSGIGLEAAGKVEEIGSNV”, the “soluble fraction (log2)” value amounted to 0.00701.
Turning to “HMGGQEEALNRLVLRELLGTLEKKERDLIVRRYFYDQTQTKIAEALGISQVQVSRMEKRILKKMREGF”, the “soluble fraction (log2)” value was -0.98.
For “HMGGRSARVRRAVLDAVVELLGEGGVRAVTIAEVAKRSGVNASSIYRRWRSIDALILDAAQDL”, the “soluble fraction (log2)” value is -2.51.
With “HMGGSDIYLGAFNIPQGSVRVTSGGQALTEGKDFTIDYNLGSVKIINQAILNSGIPVSVSYENNAG” the figure was 0.0185; with “HMGGSLADAKRFLADLLADGPVPAKGVRADADGAGHTWPTIRRAQKALGIEATKTGMKGGWVWALPR”, -0.165; with “HMGGSVYTVQKGDTLWSIAKEQLGSPLRYAEIYDLNKDVIEEAARGRGKKDSSNGHWLVVGTSLQIPEAT”, 0.184.
With “HMGGTAGKINAIGVNFRTGPSTSYTSLGLLGKDTAVTVIGTSGKWYKVTIVSTGKTGYVYATYVNLTP” the figure was -2.25; with “HMGGVIEDDRGQWAHPGEVTKINSNNITMKGVDFPVLGISDTGDKKMMQPGKDYKFDGNSVTEYPMA”, -0.24.
“HMGGWEEGVYVVREGDTLSDIVHDAVKGTEIHPDFILNAIVRVNPSAFVRGNPSWMLAGKKIK”: the “soluble fraction (log2)” value was -0.0613.
With “HMGGYVTGTIDLTKFGYAFVITEESEDDVFVAARNLNTALHGDQVKVLLYARHKGKRPEGEVVEIISRSRA” the figure was -2.35.
Then “HMGHEEPITFDRLPQAAQTFLKTHFDTLTVAYIVADRKFMGVEYEVKYTDRTEVDFRSDGQWESV”, with 0.085; and “HMGHKTLTVELQEKIENLPQTLDKYNLTLGNNKMSVDYTYSVKEKQTGITNLLQDLKEHKFDIVYLVGQDN”, with 0.343; and “HMGHLSNENAGRLLDRVLNDKIHAIMLGHLSKENNMPELAHEAVRMEITMGESRYKADDFPIYVA”, with -0.0465.
Then “HMGHTKLVVDIVEELKLEQGALLPILHAIQDELGYVPTKSVPFIADSLNLSRAEVHGVISFYHYFR”, with 0.153.
“HMGIAWGMLREQVAASDVSYRSEVLDILDRTPVWIYDAEGKIVDGRKKRLMDLQGGEPYRHMLEHFFPDLR”: the “soluble fraction (log2)” value is -2.43.
With “HMGIDAIDNFVSKIIMKIEGLGESEVPTSTIGKFIMEGLQYLDTVAYVRYASVYKNFKEAKDFEQFVGSL” the figure was -0.0349; with “HMGIDRPLFTLAQFARQIGEQVKISLSLPQDGRRRLQGKVLSVGESGIVLDVDGREFTVAIGNVDKARL”, -1.83.
As to “HMGIDSSVYVEARYELGHLYLKQKKYAAAYASFKEILDMYASTTPGVLPGAYNKLAEIGMKRIPKNKL”, the “soluble fraction (log2)” value is -2.66.
Then “HMGIIQAQIPGLVSRLFVKKGDKVAVNQRLFILEAMKMENEIDSPIQGMVEKIHITTGSKVEKGDLIMEIV”, with -2.9.
With “HMGIIYGKNPVLEAISSGTTINKIYAQTSNKEIDSVIKEALKRKIIVVNTDKQKLDKMIDGKNSQGIIASI” the figure was 0.025.
Then “HMGIKAADIVTNDIQFNTQAQFDKYKDLYPTLGWGNYDPNKTYTMQGFKNKLKPNELFTGTPNLKIEDT”, with 0.486.
As to “HMGIKDRIVYIMEKEKLSIPLFAKKIGIGPSTLLHIIRGKNAPSLQVVQAIHKAYPDIDLNWLI”, the “soluble fraction (log2)” value was -1.66.
With “HMGIKSSASLQEAAEKAQSAYYDIEHSGVATAVDIQRAWVAMVAAQIDAGEKLDSGTITLYERLKTST” the figure was 0.0117.
With “HMGIMNFDTWLKSLPGTPTPTIAAKKSGLAAPTLLRHVERGYSTADNVIAIAKAYGVSPIDALVDNGML” the figure was -0.956; with “HMGIMSEITHRVLRLLGLLESRSTWTGSDLAERLGVTQRTIRRDVIRLRELGYQVDSVQGLDGGYRMS”, -2.65; with “HMGIPVSIGQLDFNQARGNLALQVRASDFAALEQLRQRLGQTGESVQLGSASRDGDAVSARVVIGGQ”, 0.0963.
With “HMGIQQNHMTLHARSVASSANVPAEHFDTLVEKLIESGDIKVWKAREILMNLSRQHEEILDES” the figure was -0.789; with “HMGISGSDLEKMIRNILVNNTDVVETIKSGQDKKGKKQKFLQGLIMKEARGQTDPREAASLLAKLLE”, -0.108; with “HMGITMFGQNLKKLRTSKNLSQSKLSKILGISSSTIGMYEQGRRFPDQTILTKIADFFDVSTDYLLGR”, -0.819.
As for “HMGIVAQLPTIRVNGKTLYYYDAQSGDNIYSIAEKLGVTVEDIRANNPGVADGVKPRMRLFFPTSLAK”, the “soluble fraction (log2)” value was -0.377.
With “HMGIVYGVIKENWDQDHPGMVKVEILQGESGKNVSDWIPVMSPYAGKEFGAYALPEIGTQAVVAFE” the figure was 0.24; with “HMGIYDQAAAAYIEFVESKNRAPKWNELIDALYKENGKDWIDRSTLHGLLRRKEFQELLAQKRKEHLV”, -0.76.
With “HMGIYFIIAAKNQENNIEEFIRTTLFRIVYGKEESINNITLVDLKSKDNTKNIMEEIARENENVKV” the figure was -0.641; with “HMGKAPREVQVGELLRVPALNAEGEVLRRDGESVELSIQGKKLRLPLAQLEAFSPRRFARRGEGKVRGRIE”, 0.591.
For “HMGKDLLGYEVFAESGDLVGILKDVMWLPHSDVYVITKGGKEFLIPVIPEVVKGINHEQGVIVISPMEGLL”, the “soluble fraction (log2)” value was -0.234.
With “HMGKDTLKLKKNAIPYDENGKKLTNLGYSYIKKTTVLNYYGTKIINGSTYYFLGDGVYIKAANVGTTSH” the figure was -2.56.
Then “HMGKEYERALQQVTKSEIDSDEKLQQQMDALVNSPRISDKEDAWALLLVKKLRNEGVEWDELPDVLSERVQ”, with 0.159.
In the case of “HMGKGGVAYLLESEFGIELPKDMQREFGPIANDIVDSLGREVSGAELKSMFWKEYIERETPFLLLLVTGQL”, the “soluble fraction (log2)” value stood at 0.404.
With “HMGKIFSELTPREIEVVRLIADGLSNQQIAEELFLSNGTVRNHISTILEKTGLEHRTQIAVMWLR” the figure was -0.139.
With “HMGKKIVERRNTILNMVNKYGTLDFPQLRDAFPDVSDVTLRKDLQYLDSTKQAIRTHGGIKSI” the figure was -0.0604.
As for “HMGKLQFREKLNGILELGKEKHRVLTMEDVEKYFEEDALSEEQMELVYDYLLSQKIAVTGYVKK”, the “soluble fraction (log2)” value was -0.509.
Then “HMGKPPNNRIHRAKRDYALNLVKEHYPDFGPTLAAEKLAEHHGFTVSRETLRKWMIEDGIWLSRKQRR”, with -0.475; and “HMGKQIKEIVEEYYDSTSKNSPVGGSWKTSLDGVDLTSPNITIWTRTKIKYVDGSESIVTPQSL”, with -0.105.
Then “HMGKRPTIQMVAEMAGVSRGTVDRVLNGRSYVSAQVRQRVLAALQETGYISSREHHQQALQS”, with -0.691; and “HMGKRRGLKVAEEVFADRGYNPDGTLVNRSLPGAFVKDPDEAIARVIKMVKTKKVTAVNGEEIDIAADSI”, with -0.0957.
Then “HMGKSDEIFIQKSALYEELGQPDRALEMIYSALKSDSLNIDVLHRLVTLLINQNKNEDAILYNQKIID”, with -0.203; and “HMGKTEETLQMEKLVEALRRSGRMKYEDAYRIVYAAFPDAKDFEGMLSGAIRAGFIELQMGNDGAFLRAL”, with -0.859.
For the sequence “HMGKVNGFEITVIEGKNVVGSITPRQAIAKNSDGVIQLRGEQSFSATDQVLINELAFYIKSNNLKA”, the “soluble fraction (log2)” value was -1.31.
“HMGLAALLQSGPVAGTVLSHQPGGKVVIAFQGQAYPLNLKGRTLQPGQSVLARMAGEQISLEVI”: the “soluble fraction (log2)” value was -1.14.
With “HMGLDERNLKLFAASLLEQAGKKITESTMTYLLDKTGSDMENIQNEVEKIIGYTMNHTVVTTEDIDAV” the figure was 0.0873; with “HMGLDPVFKKWVDDNPWYTENRVLRALTHDYAEELKQTNPQLVGVEFLDQVKKRVQADHPEFFQ”, 0.0133.
With “HMGLGDLEVVDSIGKIRRDGQQMILAFGRHKGRDVQEVYNEDPRYINWLLSPKGIEDENGRGKVRDYLGIN” the figure was 0.0837; with “HMGLKQADFEELASRIFTVLEEKSMTPAEIVRKLNLEPDRISIVIQYLLDEGKLNIKDGFINNSA”, -0.29.

These data come from the domain aggregation screens of Martell et al. (2025).
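Further: 20 min heating vs room temperature control held 20 min.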
